What was measured:
[1] = system: CovR (non-phosphorylated) (Streptococcus pyogenes (M1T1 5448?; locus numbering MGAS5005)); assay: EMSA
[2] = system: CovR-P (SP-TyK-phosphorylated) (Streptococcus pyogenes (M1T1 5448?; locus numbering MGAS5005)); assay: EMSA

PcovR
binding signal (fold of CovR-P binding) [1]: 0.25
binding signal (fold vs non-phosphorylated CovR) [2]: 4

From publication PMC8689070
